Experimental data as given in US20030054535A1, “Endoglucanase mutants and mutant hydrolytic depolymerizing enzymes and uses thereof” (priority 1999, published 2003).
Substitutions are numbered along the chain they refer to. Names and notes keep the numbering of the source.

B1: Acidothermus cellulolyticus EI endoglucanase (Cel5A) catalytic domain, native (wild type), SEQ ID NO:3 of U.S. Pat. No. 5,536,655 (Acidothermus cellulolyticus … (protein)
chain: AGGGYWHTSGREILDANNVPVRIAGINWFGFETCNYVVHGLWSRDYRSMLDQIKSLGYNTIRLPYSDDILKPGTMPNSINFYQMNQDLQGLTSLQVMDKIVAYAGQIGLRIILDRHRPDCSGQSALWYTSSVSEATWISDLQALAQRYKGNPTVVGFDLHNEPHDPACWGCGDPSIDWRLAAERAGNAVLSVNPNLLIFVEGVQSYNGDSYWWGGNLQGAGQYPVVLNVPNRLVYSAHDYATSVYPQTWFSDPTFPNNMPGIWNKNWGYLFNQNIAPVWLGEFGTTLQSTTDQTWLKTLVQYLRPTAQYGADSFQWTFWSWNPDSGDTGGILKDDWQTVDTVKDGYLAPIKSSIFDPVG
B2: Acidothermus cellulolyticus EI endoglucanase (Cel5A) catalytic domain variant W42R, SEQ ID NO:1 (Acidothermus cellulolyticus 11B; W83R) (protein)
chain: AGGGYWHTSGREILDANNVPVRIAGINWFGFETCNYVVHGLRSRDYRSMLDQIKSLGYNTIRLPYSDDILKPGTMPNSINFYQMNQDLQGLTSLQVMDKIVAYAGQIGLRIILDRHRPDCSGQSALWYTSSVSEATWISDLQALAQRYKGNPTVVGFDLHNEPHDPACWGCGDPSIDWRLAAERAGNAVLSVNPNLLIFVEGVQSYNGDSYWWGGNLQGAGQYPVVLNVPNRLVYSAHDYATSVYPQTWFSDPTFPNNMPGIWNKNWGYLFNQNIAPVWLGEFGTTLQSTTDQTWLKTLVQYLRPTAQYGADSFQWTFWSWNPDSGDTGGILKDDWQTVDTVKDGYLAPIKSSIFDPV
notes: the protein was genetically truncated near the beginning of the linker peptide; made in house; host or cells: E. coli XL1-blue
B3: Acidothermus cellulolyticus EI endoglucanase (Cel5A) catalytic domain variant Y245G, SEQ ID NO:3 (Acidothermus cellulolyticus 11B; Y286G) (protein)
chain: B2 chain with R42W, Y245G
notes: the mutant and wild type Cel5A catalytic domains were purified using the purification methods described above; made in house; host or cells: E. coli XL1-blue
B4: Acidothermus cellulolyticus EI endoglucanase (Cel5A) catalytic domain variant Y82R, SEQ ID NO:2 (Acidothermus cellulolyticus 11B; Y123R) (protein)
chain: B2 chain with R42W, Y82R
notes: as for B2

Columns and labels:
[1] = substrate: OC[C@H]1O[C@@H](O[C@H]2[C@H](O)[C@@H](O)[C@H](O[C@H]3[C@H](O)[C@@H](O)C(O)O[C@@H]3CO)O[C@@H]2CO)[C@H](O)[C@@H](O)[C@@H]1O; experiment: purified protein, by the assay type; details: other: cellotriose, 5 mM acetate pH 5.0, 50 degrees C, 50.0 °C
[2] = substrate: OC[C@H]1O[C@@H](O[C@H]2[C@H](O)[C@@H](O)[C@H](O[C@H]3[C@H](O)[C@@H](O)C(O)O[C@@H]3CO)O[C@@H]2CO)[C@H](O)[C@@H](O)[C@@H]1O; experiment: purified protein, by the assay type; assay type: biochemical, Acidothermus cellulolyticus; details: other: cellotriose, 5 mM acetate pH 5.0, 50 degrees C, 50.0 °C
Description: Each assay mixture was pre-incubated at 50 degrees C. for 10 min. prior to the addition of 0.00272 micromolar (0. 1092 microgram/mL) enzyme, which was also made up in 5 mM acetate buffer with 10 microgram/mL BSA. The final assay volume was 0.1 mL.
At set-time intervals, an aliquot of the reaction mixture was pulled and immediately analyzed for the release of cellobiose using a Dionex DX300 chromatography system and a Dionex PAD2 pulsed amperometric detector having a gold working electrode. The response of this detector was optimized for the detection of carbohydrates using a waveform defined by the following time and potential settings: t1=420 msec.; EI=+0.05 V; t2=180 msec.; E2=+0.75 V; t3=360 msec.; and E3=−0.15 V. Separation of the reaction products, from the substrate, was achieved on a Dionex CarboPac PA-1 analytical (4×250 mm) column equipped with CarboPac PA-1 (4×50 uard column, 500 mM sodium hydroxide eluent, and a flow rate of 1.5 mL/min. The amount of cellobiose present for each time-point-sample was quantified by comparing the area of the cellobiose peak against a linear calibration curve. The kinetic constants were determined with a double-reciprocal-plot, where the reciprocal of the rate of cellobiose produced was plotted as a function of the inverse of the substrate concentration.
Michaelis-Menten kinetics of the mutant EI enzymes and the native enzyme were determined.

| Protein | Km [1] [µM] | Vmax [1] [µM/min] | Km [2] [µM] | Vmax [2] [µM/min] |
| --- | --- | --- | --- | --- |
| B1 | 350 | 0.86 | – | – |
| B2 | – | – | 610 | 0.99 |
| B3 | – | – | 480 | 0.85 |
| B4 | – | – | 690 | 1.5 |
